B1: PTPRD (parent)
chain: ELDELLKEISRKRRSIRYGREVEL

Variants of: B1
Test: protein stability index of a GFP-peptide fusion (GPS, HEK-293T) (PSI 1-6); higher = more stable
Conditions: c terminus: a fixed tail appended
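Further: lentivirally expressed fusions sorted by FACS into six bins by GFP to DsRed ratio, PSI derived from sequencing read proportions per bin multiplied by bin number.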

Protein stability index: each site, then its substitutions
E21: L 2.12 | P 2.71 | S 1.86 | G 2.22 | H 2.06 | K 2.09 | D 1.79 | C 2.55 | M 1.86 | N 1.93 | Y 2.15 | R 2.23 | F 2.22 | T 3.01 | V 1.86 | Q 2.13 | I 1.82
I16: M 2.54 | Y 1.75 | R 1.72 | G 3.21 | E 3.62 | H 2.37 | T 2.57 | N 2.98 | A 1.9 | V 2.35 | F 1.81 | Q 3.12 | W 1.8 | P 2.43 | K 1.9 | C 2.81 | S 3.4 | L 2.42
E23: L 2.85 | K 1.74 | N 2.54 | R 2.17 | P 2.56 | H 2.51 | Y 1.92 | G 2.41 | C 1.96 | D 2.12 | I 2.38 | Q 2.25 | M 2.08 | F 2.05 | A 2.31 | V 2.57 | W 2.09 | S 2.47 | T 2.34
Y18: M 2.22 | P 2.78 | W 1.84 | N 2.74 | Q 2.43 | L 2.59 | F 2.33 | I 2.35 | S 2.91 | G 2.51 | D 2.6 | T 2.17 | H 2.33 | A 2.13 | C 1.67 | V 1.95 | R 2.33 | K 2.46 | E 2.96
R14: Q 2.55 | W 1.73 | M 2.03 | Y 1.66 | H 2.92 | K 2.39 | N 2.1 | F 1.96 | E 2.73 | D 2.65 | V 2.42 | L 3.77 | S 2.9 | C 2.19 | A 2.02 | I 1.99 | P 2.64 | T 2.38 | G 3.16
R17: I 2.46 | T 2.15 | A 2.39 | W 1.85 | S 2.44 | F 1.63 | P 2.97 | D 3.33 | L 2.55 | Y 2.6 | K 2.17 | H 2.06 | C 2.34 | G 2.19 | M 2.12 | N 2.75 | Q 2.68 | E 2.64 | V 2.27
R20: M 2.02 | C 2.01 | P 2.49 | N 2.8 | F 1.64 | Y 1.89 | W 1.43 | S 3.33 | E 2.71 | H 2.08 | G 2.23 | D 3.33 | I 2.11 | L 1.84 | V 1.8 | K 2.17 | A 2.85 | T 2.45 | Q 2.42
V22: C 2.29 | R 2.46 | N 2.35 | W 2.39 | D 2.96 | F 2.22 | Y 2.27 | K 2.34 | G 2.64 | M 2.85 | T 2.52 | L 2.14 | I 2.17 | P 2.04 | E 3.18 | A 1.82 | H 2.88 | Q 2.5 | S 2.79
K12: V 2.23 | Q 1.81 | E 2.32 | H 2.03 | G 2.26 | T 2.56 | L 1.95 | Y 1.55 | P 2.53 | M 2.11 | F 1.29 | D 2.39 | A 1.99 | W 1.66 | I 1.66 | S 2.63 | C 2.49 | R 2.49
